T1: human tissue factor pathway inhibitor (TFPI) (human, UniProt P10646 29-282, limits assumed)
T1 construct: also called Human TFPI
T1 sequence (looked up): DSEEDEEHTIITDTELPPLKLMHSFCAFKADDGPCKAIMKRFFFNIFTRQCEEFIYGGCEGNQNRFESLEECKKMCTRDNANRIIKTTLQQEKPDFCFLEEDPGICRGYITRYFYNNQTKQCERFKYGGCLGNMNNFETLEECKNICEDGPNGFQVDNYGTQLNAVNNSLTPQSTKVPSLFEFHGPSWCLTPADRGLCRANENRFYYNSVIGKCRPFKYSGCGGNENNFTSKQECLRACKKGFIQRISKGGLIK

B1: 3E10scFv-gA200 (bispecific antibody, human IgG2, lambda)
heavy: QVQLVESGGTLVQPGGSLRLSCAASGFSFTDAWMSWVRQAPGKELEWVSSISGSGGSTYYAGSVKGRFTISRDNSKNTLYLQMNSLRAEDTAVYYCARVLSLTDYYWYGMDVWGQGTLVTVGGGGSGGGGSGGGGSNFMLTQPHSVSASPGKTVTISCTRSSGSVASYYVQWYQQRPGSSPTTVIYEDNHRPSGVPDRFSGSIDTSSNSASLTISGLKTEDEADYYCQSYDSNNLVVFGGGTKLTVLGEGRTATSGGGLVQPGGSLRLSCAASGFTFSSYGMDWVRQAPGKGLEWVSSIRGSRGSTYYADSVKGRFTISRDNSKNTLYLQMNSLRAEDTAVYYCARLYRYWFDYWGQGTLVTVSSASTKGPSVFPLAPCSRSTSESTAALGCLVKDYFPEPVTVSWNSGALTSGVHTFPAVLQSSGLYSLSSVVTVPSSNFGTQTYTCNVDHKPSNTKVDKTVERKCCVECPPCPAPPVAGPSVFLFPPKPKDTLMISRTPEVTCVVVDVSHEDPEVQFNWYVDGVEVHNAKTKPREEQFNSTFRVVSVLTVVHQDWLNGKEYKCKVSNKGLPAPIEKTISKTKGQPREPQVYTLPPSREEMTKNQVSLTCLVKGFYPSDIAVEWESNGQPENNYKTTPPMLDSDGSFFLYSKLTVDKSRWQQGNVFSCSVMHEALHNHYTQKSLSLSPG
light: SYELTQPPSVSVSPGQTARITCSGDNLPKYYAHWYQQKPGQAPVVVIFYDVNRPSGIPERFSGSNSGNTATLTISGTQAMDEADYYCQAWWSSTPVFGGGTKLTVLGQPKAAPSVTLFPPSSEELQANKATLVCLISDFYPGAVTVAWKADSSPVKAGVETTTPSKQSNNKYAASSYLSLTPEQWKSHRSYSCQVTHEGSTVEKTVAPTECS
notes: scFv against TF fused on the N-terminus of the heavy chain of anti-TFPI IgG gA200; made in CHO cells; also called 3E10sc-gA200
B2: Ter119scFv-gA200 (bispecific antibody, human IgG2, lambda)
heavy: QVKLQESGGGLVQPGGSLKLSCVASGFTFRDHWMNWVRQAPGKTMEWIGDIRPDGSDTNYAPSVRNRFTISRDNARSILYLQMSNMRSDYTATYYCVRDSPTRAGLMDAWGQGASVTVLTGGGGSGGGGSGGGGSDIQMIQSPSVLSASVGDRVTLNCKASQNINKYLNWYQQKLGEAPKVLIYNTNNLQTGIPSRFSGSGSGTDFTLTISSLQPEDFATYFCFQHYTWPTFGGGTKLELKEGRTATSGGGLVQPGGSLRLSCAASGFTFSSYGMDWVRQAPGKGLEWVSSIRGSRGSTYYADSVKGRFTISRDNSKNTLYLQMNSLRAEDTAVYYCARLYRYWFDYWGQGTLVTVSSASTKGPSVFPLAPCSRSTSESTAALGCLVKDYFPEPVTVSWNSGALTSGVHTFPAVLQSSGLYSLSSVVTVPSSNFGTQTYTCNVDHKPSNTKVDKTVERKCCVECPPCPAPPVAGPSVFLFPPKPKDTLMISRTPEVTCVVVDVSHEDPEVQFNWYVDGVEVHNAKTKPREEQFNSTFRVVSVLTVVHQDWLNGKEYKCKVSNKGLPAPIEKTISKTKGQPREPQVYTLPPSREEMTKNQVSLTCLVKGFYPSDIAVEWESNGQPENNYKTTPPMLDSDGSFFLYSKLTVDKSRWQQGNVFSCSVMHEALHNHYTQKSLSLSPG
light: B1 light
notes: scFv against RBC fused on the N-terminus of the heavy chain of anti-TFPI IgG gA200; made in CHO cells; also called Ter119sc-gA200; T119sc-gA200
B3: gA200 (antibody, human IgG2, lambda, V domains shown)
VH: EVQLVESGGGLVQPGGSLRLSCAASGFTFSSYGMDWVRQAPGKGLEWVSSIRGSRGSTYYADSVKGRFTISRDNSKNTLYLQMNSLRAEDTAVYYCARLYRYWFDYWGQGTLVTVSS
VL: SYELTQPPSVSVSPGQTARITCSGDNLPKYYAHWYQQKPGQAPVVVIFYDVNRPSGIPERFSGSNSGNTATLTISGTQAMDEADYYCQAWWSSTPVFGGGTKLTVLG
modifications: Fc N-glycan
notes: Human anti-TFPI IgG from human antibody libraries, optimised; no masking domain; also called parental anti-TFPI antibody gA200; unmodified anti-TFPI antibody

Assays:
[1] = target: T1, human tissue factor pathway inhibitor …; assay: SPR (Biacore) kinetics, human TFPI immobilised
Method: (§1) Human TFPI was immobilized on CM4 or CM5 chip using amine coupling kit based on manufacturer's instruction. Anti-TFPI pro-drug antibodies or parental anti-TFPI antibody were flowed through the system with 10 μg/mL antibody with or without 15 μg/mL human serum albumin (HSA). The binding level was measure at 2 seconds after completion of each injection. In kinetics assay, antibodies with a series of concentrations were injected, followed by 30-minute dissociation time. The dissociation and association rate of the antibodies were modeled using BiaEvaluation software.

[2] = target: T1, human tissue factor pathway inhibitor …; assay: SPR (Biacore) kinetics, human TFPI immobilised; reference gA200
Method: as §1

[3] = target: T1, human tissue factor pathway inhibitor …; assay: SPR (Biacore), TFPI; with HSA against antibody alone
[4] = target: T1, human tissue factor pathway inhibitor …; assay: SPR (Biacore) kinetics, human TFPI immobilised; antibody with HSA; reference gA200
Method: as §1

[5] = target: T1, human tissue factor pathway inhibitor …; assay: SPR (Biacore), TFPI; antibody alone (reference)
[6] = target: T1, human tissue factor pathway inhibitor …; assay: SPR (Biacore), TFPI; with monkey serum albumin against antibody alone
[7] = target: T1, human tissue factor pathway inhibitor …; assay: SPR (Biacore) kinetics, human TFPI immobilised; antibody with HSA
Method: as §1

Binder | Kd [1] [nM] | Affinity decrease (fold) [2] [fold] | Affinity decrease (fold) [3] [fold] | Affinity decrease (fold) [4] [fold] | Affinity decrease (fold) [5] [fold] | Affinity decrease (fold) [6] [fold] | Kd [7] [nM]
B1 | 0.519 | 29.7 | – | – | – | – | –
B2 | 0.256 | 14.7 | – | – | – | – | –
B3 | 0.0175 | 1 | 0.7 | 1.04 | 1 | 0.5 | 0.0181

Reference: patent US20160009817A1 (Bayer, published 2016)
